Consider 7 substances from patent US20250320281A1.

For orientation: IC50 means the concentration at which inhibition is half-maximal. Read a low IC50 as greater potency in that assay.

Common to all, as to test: cell-based or functional assay
Test [1] concerns the target HIV-1 Env of isolate ZM249 (clade C pseudovirus) (HIV-1).
The target in test [2] is HIV-1 Env of isolate TR0.11 (clade B pseudovirus) (HIV-1).
In test [3] the target is HIV-1 Env of isolate DU156 (clade C pseudovirus) (HIV-1).
For test [4], the target named is HIV-1 Env of isolate THRO.18 (clade B pseudovirus) (HIV-1).
In test [5] the target is MuLV envelope protein (control pseudovirus) (MuLV).
The target of test [6] is HIV-1 92RW020 envelope glycoprotein (Env) on pseudovirus (HIV-1 isolate 92RW020 (clade A)).
Test [7] concerns the target HIV-1 MGRM-C-027 envelope glycoprotein (Env) on pseudovirus (HIV-1 isolate MGRM-C-027 (clade C)).
For test [8], the target named is HIV-1 NL43 envelope glycoprotein (Env) on pseudovirus (HIV-1 isolate NL43 (clade B)).
In test [9] the target is HIV-1 MGRM-C-028 envelope glycoprotein (Env) on pseudovirus (HIV-1 isolate MGRM-C-028 (clade C)).
For test [10], the target named is HIV-1 MGRM-A-010 envelope glycoprotein (Env) on pseudovirus (HIV-1 isolate MGRM-A-010 (clade A)).
Test [11] concerns the target HIV-1 93IN905 envelope glycoprotein (Env) on pseudovirus (HIV-1 isolate 93IN905 (clade C)).
For test [12], the target named is HIV-1 Env of isolate 92BR020 (pseudovirus) (HIV-1).
Test [13] addresses HIV-1 92RW020 Env (HIV-1).
Test [14] addresses HIV-1 92BR020 Env (HIV-1).
For test [15], the target named is HIV-1 92TH021 Env (HIV-1).
Test [16] has as its target HIV-1 92UG005 Env (HIV-1).
In test [17] the target is HIV-1 CMU02 Env (pseudovirus) (HIV-1 isolate CMU02 (clade AE)).
Test [18] concerns the target HIV-1 93IN905 Env (pseudovirus) (HIV-1 isolate 93IN905 (clade C)).
The target of test [19] is HIV-1 APV17 Env (pseudovirus) (HIV-1 isolate APV17 (clade B)).
The target of test [20] is aMLV envelope (control pseudovirus) (aMLV).
For test [21], the target named is HIV-1 92UG024 Env (pseudovirus) (HIV-1 isolate 92UG024 (clade D)).
Test [22] has as its target HIV-1 APV6 Env (pseudovirus) (HIV-1 isolate APV6 (clade B)).
Test [23] deals with HIV-1 APV13 Env (pseudovirus) (HIV-1 isolate APV13 (clade B)).
The target of test [24] is HIV-1 MGRM-A-010 Env (pseudovirus) (HIV-1 isolate MGRM-A-010 (clade A)).
Test [25] concerns the target HIV-1 JRFL Env (pseudovirus) (HIV-1 isolate JRFL (clade B)).
The target in test [26] is HIV-1 MGRM-D-001 Env (pseudovirus) (HIV-1 isolate MGRM-D-001 (clade D)).
Test [27] concerns the target HIV-1 Env of pseudovirus 92UG037 (subtype A) (HIV-1).
Test [28] concerns the target HIV-1 Env of isolate MGRM-F1-008 (clade F), on pseudovirus (HIV-1).
Test [29] addresses HIV-1 Env of isolate MGRM-F1-017 (clade F pseudovirus) (HIV-1).
Test [30] concerns the target HIV-1 Env of pseudovirus MGRM-A-002 (subtype A) (HIV-1).
Test [31] deals with HIV-1 Env of pseudovirus MGRM-AG-013 (subtype AG) (HIV-1).
Test [32] addresses HIV-1 Env of isolate MGRM-F1-004 (HIV-1).

Some results are limits rather than exact numbers.

1443_C16 (PG16) (TCN-116) (antibody), sequence (VH): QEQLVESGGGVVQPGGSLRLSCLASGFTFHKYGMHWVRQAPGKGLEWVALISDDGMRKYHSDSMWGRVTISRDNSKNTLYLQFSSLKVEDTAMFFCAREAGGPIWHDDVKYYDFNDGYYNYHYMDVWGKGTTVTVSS
1443_C16 (PG16) (TCN-116) (antibody), sequence (VL): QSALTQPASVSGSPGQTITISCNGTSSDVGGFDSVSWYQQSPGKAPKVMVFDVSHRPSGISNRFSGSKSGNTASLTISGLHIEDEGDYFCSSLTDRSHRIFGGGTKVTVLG

With 1443_C16 (PG16) (TCN-116) (antibody), the IC50 (neutralization, TZM-bl pseudovirus assay) in test [1] was below 0.01 µg/mL; in test [2], 3.61 µg/mL; in test [3], below 0.01 µg/mL; in test [4], 2.19 µg/mL; in [5], above 25 µg/mL.

Regarding 1496_C09 (PG9) (TCN-109) (antibody), the neutralization IC50 in [6] worked out at 0.161 µg/mL; in [7], 2.45 µg/mL; in test [8], 0.687 µg/mL; in [9], 0.121 µg/mL; in [10] it was 0.0375 µg/mL; in [11] it was 0.048 µg/mL. Moreover, the neutralization IC80 in [6] was 1.04 µg/mL; in test [9], 0.645 µg/mL; in test [10] it was 0.121 µg/mL; in test [11], 0.308 µg/mL. Moreover, the neutralization IC90 in test [6] amounted to 3.4 µg/mL; in [9], 1.65 µg/mL; in test [10], 0.242 µg/mL; in [11] it was 0.981 µg/mL. The neutralization IC95 in [9] was 3.71 µg/mL; in [10], 0.456 µg/mL; in test [11], 3.31 µg/mL.

The substance 4858_P08 (PGT-123) (antibody) yielded a Primary Neutralization Index (B cell culture supernatant) in test [12] of 2.8.

In test [13], 4877_D15 (PGT-122) (antibody) registered a Neutralization by PGT-122, IC50 of 0.0072 µg/mL; a Neutralization by PGT-122, IC80 of 0.0407 µg/mL; a Neutralization by PGT-122, IC90 of 0.113 µg/mL; a Neutralization by PGT-122, IC95 of 0.289 µg/mL. In test [14], the Neutralization by PGT-122, IC50 came out at 0.0337 µg/mL; the Neutralization by PGT-122, IC80 was found to be 0.0929 µg/mL; the Neutralization by PGT-122, IC90 is 0.168 µg/mL; the Neutralization by PGT-122, IC95 is 0.289 µg/mL. Moreover, in [15], the Neutralization by PGT-122, IC50 is above 10 µg/mL; the Neutralization by PGT-122, IC80 is above 10 µg/mL; the Neutralization by PGT-122, IC90 was above 10 µg/mL; the Neutralization by PGT-122, IC95 was above 10 µg/mL. In [16], this substance yielded a Neutralization by PGT-122, IC50 above 10 µg/mL; a Neutralization by PGT-122, IC80 above 10 µg/mL; a Neutralization by PGT-122, IC90 above 10 µg/mL; a Neutralization by PGT-122, IC95 above 10 µg/mL.

For the substance 5123_A06 (PGT-125) (antibody), the Neutralization by PGT-125, IC50 is above 10 µg/mL in [17]; 0.0137 µg/mL in [18]; 7.31 µg/mL in test [19]; above 10 µg/mL in test [20]; above 10 µg/mL in test [21]; 0.0359 µg/mL in test [22]. In addition, the Neutralization by PGT-125, IC50 is 0.0128 µg/mL in test [23], 0.0055 µg/mL in [24], 0.0156 µg/mL in test [25] and 2.31 µg/mL in test [26]. Moreover, the Neutralization by PGT-125, IC80 was above 10 µg/mL in [17]; 0.0494 µg/mL in [18]; above 10 µg/mL in test [19]; above 10 µg/mL in test [20]; above 10 µg/mL in test [21]; 0.133 µg/mL in test [22]. The Neutralization by PGT-125, IC80 is 0.0414 µg/mL in test [23], 0.024 µg/mL in test [24], 0.0462 µg/mL in [25] and above 10 µg/mL in [26]. Also, the Neutralization by PGT-125, IC90 is above 10 µg/mL in test [17]; 0.106 µg/mL in test [18]; above 10 µg/mL in [19]; above 10 µg/mL in test [20]; above 10 µg/mL in test [21]; 0.288 µg/mL in [22]. Besides, the Neutralization by PGT-125, IC90 was 0.0821 µg/mL in test [23], 0.0575 µg/mL in test [24], 0.0873 µg/mL in test [25] and above 10 µg/mL in test [26]. Further, the Neutralization by PGT-125, IC95 in test [17] was above 10 µg/mL; in test [18], 0.216 µg/mL; in test [19] it was above 10 µg/mL; in test [20], above 10 µg/mL; in test [21], above 10 µg/mL; in test [22] it was 0.597 µg/mL. Moreover, the Neutralization by PGT-125, IC95 in test [23] is 0.154 µg/mL; in [24] it was 0.131 µg/mL; in test [25] it was 0.157 µg/mL; in test [26] it was above 10 µg/mL.

Regarding PGV04 (antibody), the IC50, pseudovirus neutralization in [27] was found to be 0.145 µg/mL; in test [30], 0.093 µg/mL. Besides, the IC50 (µg/mL), pseudovirus neutralization in test [28] is 1.03 µg/mL; in test [29] it was 2.38 µg/mL.

In test [31], VRC01 (antibody) yielded an IC50, pseudovirus neutralization of 0.197 µg/mL. In addition, the half-maximal inhibitory concentration (IC50) in test [32] is 0.305 µg/mL.
